Molecular target: the molecule itself
Experiment: cryo-EM structure

B1: E. coli MsbA (natural protein)
chain: MHNDKDLSTWQTFRRLWPTIAPFKAGLIVAGVALILNAASDTFMLSLLKPLLDDGFGKTDRSVLVWMPLVVIGLMILRGITSYVSSYCISWVSGKVVMTMRRRLFGHMMGMPVSFFDKQSTGTLLSRITYDSEQVASSSSGALITVVREGASIIGLFIMMFYYSWQLSIILIVLAPIVSIAIRVVSKRFRNISKNMQNTMGQVTTSAEQMLKGHKEVLIFGGQEVETKRFDKVSNRMRLQGMKMVSASSISDPIIQLIASLALAFVLYAASFPSVMDSLTAGTITVVFSSMIALMRPLKSLTNVNAQFQRGMAACQTLFTILDSEQEKDEGKRVIERATGDVEFRNVTFTYPGRDVPALRNINLKIPAGKTVALVGRSGSGKSTIASLITRFYDIDEGEILMDGHDLREYTLASLRNQVALVSQNVHLFNDTVANNIAYARTEQYSREQIEEAARMAYAMDFINKMDNGLDTVIGENGVLLSGGQRQRIAIARALLRDSPILILDEATSALDTESERAIQAALDELQKNRTSLVIAHRLSTIEKADEIVVVEDGVIVERGTHNDLLEHRGVYAQLHKMQFGQ
  stoichiometry N: 2
